The values that follow come from patent publication US20210403864A1, “METHODS AND COMPOSITIONS FOR TREATING ACTIVATED G-ALPHA Q MUTANT CANCERS OR MELANOCYTIC MALIGNANCIES” (Memorial Sloan Kettering Cancer Center, priority 2018, published 2021).

In experiment [1] the target is GNAQ^Q209L (human GNAQ α-subunit, Q209L mutant) (human) (UniProt P50148). Description: cell-based or functional assay.
Experiment [2] concerns the target GNAQ^Q209L/P (endogenous, in three human UVM cell lines) (human) (UniProt P50148). Kind of experiment: cell-based or functional assay.
Experiment [3] concerns the target GNAQ^R183Q (human GNAQ α-subunit, R183Q mutant) (human) (UniProt P50148). Description: cell-based or functional assay.
In experiment [4] the test system is human Mel202 uveal melanoma xenografts. Kind of experiment: In vivo anti-tumor activity, xenografts in SCID mice. To be noted: MEK162 10 mg/kg P.O. b.i.d.; YM-254890 2.5 mg/kg i.p. q.d.; over 20 days; single agents vs vehicle, combination vs vehicle and single agents. The method, then: To evaluate the effect of YM-254890 and binimetinib (MEK162) in vivo, Mel202 uveal melanoma xenografts were established in SCID mice, and the mice were treated with vehicle only, 10 mg/kg MEK162 (P.O., b.i.d.), YM-254890 (2.5 mg/kg i.p., q.d.) or a combination of MEK162 and YM-254890. Tumor volumes were measured over 20 days.

Chain of GNAQ^R183Q (human GNAQ α-subunit, R183Q mutant) (human) (P50148 whole entry R183Q): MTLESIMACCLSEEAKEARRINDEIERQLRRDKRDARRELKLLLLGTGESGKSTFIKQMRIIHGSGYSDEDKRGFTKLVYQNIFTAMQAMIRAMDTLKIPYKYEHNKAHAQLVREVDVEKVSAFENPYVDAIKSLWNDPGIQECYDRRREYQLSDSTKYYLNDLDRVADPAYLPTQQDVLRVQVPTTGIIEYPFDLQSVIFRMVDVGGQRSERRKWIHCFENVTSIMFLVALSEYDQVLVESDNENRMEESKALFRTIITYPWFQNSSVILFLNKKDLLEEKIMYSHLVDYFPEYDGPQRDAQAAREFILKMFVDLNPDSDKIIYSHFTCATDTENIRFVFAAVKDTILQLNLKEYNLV
Chain of GNAQ^Q209L (human GNAQ α-subunit, Q209L mutant) (human) (P50148 whole entry Q209L): as the sequence (P50148 whole entry R183Q) above, with Q183R, Q209L counted along it

The molecule YM-254890 (peptide) displayed an IP1 accumulation, mutant-transformed melan-a cells, 24-hour treatment (fold less sensitive) in experiment [1] of 10. In experiment [2], this molecule gave an IC50 of cell proliferation, human UVM cell lines (CellTiter-glo 2.0, 5 days) of 100 nM. For the same molecule, in experiment [3], the IP1 accumulation after 24-hour treatment with variable doses of YM, transfected HEK293T cells (fold less sensitive) stood at 20 and the IP1 accumulation, mutant-transformed melan-a cells, 24-hour treatment (fold less sensitive) was 10.
`Cn1cnc2c(F)c(Nc3ccc(Br)cc3F)c(C(=O)NOCCO)cc21` [MEK162, binimetinib]: the tumor volume result in experiment [4] is “moderate reduction”.
